According to patent US20190338048A1 (published 2019):
Where a chain is given by its changes, count along the chain named. In names and notes the source's numbering stands. Where two headings read alike, the source gives them in different places.

How the values were obtained:
[1] = target: T1, Recombinant HER2 protein (HER2-ECD) (UniProt P04626 23-652, limits assumed); assay: SPR, Fab captured, HER2 as analyte
[2] = target: T1, Recombinant HER2 protein (HER2-ECD); assay: SPR
[3] = target: T2, His-tagged recombinant human CD-19 (human, UniProt P15391 20-291, limits assumed); assay: SPR
T2 sequence (looked up): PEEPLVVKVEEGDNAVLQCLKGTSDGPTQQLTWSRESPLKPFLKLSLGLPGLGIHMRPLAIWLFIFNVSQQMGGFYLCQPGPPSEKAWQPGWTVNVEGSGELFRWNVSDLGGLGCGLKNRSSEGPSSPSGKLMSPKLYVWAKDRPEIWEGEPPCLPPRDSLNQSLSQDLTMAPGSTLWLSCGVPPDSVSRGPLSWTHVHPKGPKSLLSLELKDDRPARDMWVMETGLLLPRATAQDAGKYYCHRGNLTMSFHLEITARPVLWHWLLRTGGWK

[4] = target: CAT-2200 heavy chain Fab construct (H1) Q39K (VH Q39K); assay: LCCA, SPR tag read-out
[5] = target: Pertuzumab heavy chain Fab construct (H2) Q39D (VH Q39D); assay: LCCA, SPR tag read-out
[6] = target: Pertuzumab heavy chain Fab construct (H2) Q39E (VH Q39E); assay: LCCA, SPR tag read-out
[7] = target: CAT-2200 heavy chain Fab construct (H1), wild type; assay: LCCA, SPR tag read-out
[8] = target: Pertuzumab heavy chain Fab construct (H2) Q39D (VH Q39D); assay: LCCA, SPR tag read-out; remark: listed apart in the source
[9] = target: Pertuzumab heavy chain Fab construct (H2) Q39E (VH Q39E); assay: LCCA, SPR tag read-out; remark: listed apart in the source
[10] = target: CAT-2200 heavy chain Fab construct (H1) Q39K (VH Q39K); assay: LCCA, SPR tag read-out; remark: listed apart in the source
[11] = target: Pertuzumab heavy chain Fab construct (H2) Q39D (VH Q39D); assay: LCCA, SPR tag read-out; remark: listed apart in the source
[12] = target: Pertuzumab heavy chain Fab construct (H2) Q39E (VH Q39E); assay: LCCA, SPR tag read-out; remark: listed apart in the source
[13] = target: CAT-2200 heavy chain Fab construct (H1) Q39E (VH Q39E); assay: LCCA, SPR tag read-out
[14] = target: Pertuzumab heavy chain Fab construct (H2) Q39R (VH Q39R); assay: LCCA, SPR tag read-out
[15] = target: CAT-2200 heavy chain Fab construct (H1) Q39D (VH Q39D); assay: LCCA, SPR tag read-out
[16] = target: CAT-2200 heavy chain Fab construct (H1) Q39E (VH Q39E); assay: LCCA, SPR tag read-out; remark: listed apart in the source
[17] = target: Pertuzumab heavy chain Fab construct (H2) Q39K (VH Q39K); assay: LCCA, SPR tag read-out
[18] = target: Recombinant human IL-17A (human, UniProt Q16552 20-155, limits assumed); assay: SPR
Target sequence in this assay (Q16552 20-155 limits assumed): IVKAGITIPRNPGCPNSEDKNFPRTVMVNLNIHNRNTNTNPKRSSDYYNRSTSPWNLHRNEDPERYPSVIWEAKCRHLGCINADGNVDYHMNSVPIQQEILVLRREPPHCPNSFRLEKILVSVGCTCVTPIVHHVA

[19] = target: CAT-2200 heavy chain Fab construct (H1) Q39R (VH Q39R); assay: LCCA, SPR tag read-out
[20] = target: CAT-2200 heavy chain Fab construct (H1) Q39R (VH Q39R); assay: LCCA, SPR tag read-out; remark: listed apart in the source
[21] = target: Recombinant human IL-17A (human, UniProt Q16552 20-155, limits assumed); assay: SPR; remark: listed apart in the source
Target sequence in this assay (Q16552 20-155 limits assumed): as above

[22] = target: Recombinant human IL-17A (human, UniProt Q16552 20-155, limits assumed); assay: SPR; remark: listed apart in the source
Target sequence in this assay (Q16552 20-155 limits assumed): as above

[23] = target: T3, His-tagged recombinant human CD-19 (human, UniProt P15391 20-291, limits assumed); assay: SPR; remark: listed apart in the source
T3 sequence (looked up): T2 sequence (looked up)

[24] = target: His-tagged Influenza B Hemagglutinin (B/Brisbane/60/2008) (Influenza B virus (B/Brisbane/60/2008)); assay: SPR
[25] = target: T3, His-tagged recombinant human CD-19; assay: SPR; remark: listed apart in the source

B1: Pertuzumab Fab heterodimer H2L2 of design 10674-10749 (H2 Q39K, L2 Q38E) (Fab, name in Kabat numbering, V domains shown, not shown: small tags and cut ends)
VH: EVQLVESGGGLVQPGGSLRLSCAASGFTFTDYTMDWVRKAPGKGLEWVADVNPNSGGSIYNQRFKGRFTLSVDRSKNTLYLQMNSLRAEDTAVYYCARNLGPSFYFDYWGQGTLVTVSS
VL: DIQMTQSPSSLSASVGDRVTITCKASQDVSIGVAWYQEKPGKAPKLLIYSASYRYTGVPSRFSGSGSGTDFTLTISSLQPEDFATYYCQQYYIYPYTFGQGTKVEIKR
- Change in KD of H2L2 Fab vs wild type, -(log(KD_design)-log(KD_wt)) [1]: 0.12 log(KD) difference
- Kd [2]: 6.09 nM

B2: Design 4040 SGN-CD19a H2L2 arm in OAA (one-armed antibody) format (antibody, V domains shown)
VH: QVTLRESGPALVKPTQTLTLTCTFSGFSLSTSGMGVGWIRQPPGKAPEWLAHIWWDDDKRYNPALKSRLTISKDTSKNQVVLTMTNMDPVDTAAYYCARMELWSYYFDYWGQGTLVTVSS
VL: EIVLTQSPATLSLSPGERATLSCSASSSVSYMHWYQQKPGQAFRLLIYDTSKLASGIPARFSGSGSGTDFTLTISSLEPEDFAVYYCFQGSVYPFTFGQGTKLEIKR
- Kd [3]: 22.4 nM

B3: Pertuzumab kappa light chain construct (L2) Q38K, HA-tagged (other, not shown: small tags and cut ends)
light: DIQMTQSPSSLSASVGDRVTITCKASQDVSIGVAWYQKKPGKAPKLLIYSASYRYTGVPSRFSGSGSGTDFTLTISSLQPEDFATYYCQQYYIYPYTFGQGTKVEIKRTVAAPSVFIFPPSDEQLKSGTASVVCLLNNFYPREAKVQWKVDNALQSGNSQESVTEQDSKDSTYSLSSTLTLSKADYEKHKVYACEVTHQGLSSPVTKSFNRGEC
- H1L1:H1L2 normalized median ratio (H1L2 part) [4]: 35%
- H2L2:H2L1 normalized median ratio (H2L2 part) [5]: 79%
- H2L2:H2L1 normalized median scalar value ln(r1/f1) [5]: 1.35
- H2L2:H2L1 normalized median ratio (H2L2 part) [6]: 78%
- H2L2:H2L1 normalized median scalar value ln(r1/f1) [6]: 1.29
- H1L1:H1L2 normalized median ratio (H1L2 part) [7]: 33%
- H2L2:H2L1 normalized median ratio (H2L2 part) [8]: 47%
- H2L2:H2L1 normalized median scalar value ln(r1/f1) [8]: -0.11
- H2L2:H2L1 normalized median ratio (H2L2 part) [9]: 47%
- H2L2:H2L1 normalized median scalar value ln(r1/f1) [9]: -0.11
- H1L1:H1L2 normalized median ratio (H1L2 part) [10]: 29%
- H2L2:H2L1 normalized median ratio (H2L2 part) [11]: 75%
- H2L2:H2L1 normalized median scalar value ln(r1/f1) [11]: 1.09
- H2L2:H2L1 normalized median ratio (H2L2 part) [12]: 75%
- H2L2:H2L1 normalized median scalar value ln(r1/f1) [12]: 1.09

B4: Pertuzumab kappa light chain construct (L2) Q38E, HA-tagged (other, not shown: small tags and cut ends)
light: B3 light with K38E
- H1L1:H1L2 normalized median ratio (H1L2 part) [13]: 31%
- H2L2:H2L1 normalized median ratio (H2L2 part) [14]: 54%
- H2L2:H2L1 normalized median scalar value ln(r1/f1) [14]: 0.15
- H1L1:H1L2 normalized median ratio (H1L2 part) [15]: 36%
- H1L1:H1L2 normalized median ratio (H1L2 part) [16]: 24%
- H2L2:H2L1 normalized median ratio (H2L2 part) [17]: 54%

B5: Design 4320 bispecific antibody, System A (CAT-2200 H1/L1 & Pertuzumab H2/L2) (bispecific antibody)
chain 1: not shown
chain 2: NFMLTQPHSVSESPGKTVTISCTRSSGSLANYYVQWYQQRPGSSPTIVIFANNQRPSGVPDRFSGSIDSSSNSASLTISGLKTEDEADYYCQTYDPYSVVFGGGTKLTVLGQPKAAPSVFLFPPSSEELQANTATLDCLISDFYPGAVTVAWKADSSPVKAGVETTTPSKQSNNKYAAFSYLSLTPEQWKSHRSYSCQVTHEGSTVEKTVAPTECS
chain 3: not shown
chain 4: B3 light with K38Q, Q124K, L135A, T178R
- Kd [18]: 0.36 nM

B6: Pertuzumab kappa light chain construct (L2) Q38R, HA-tagged (other, not shown: small tags and cut ends)
light: B3 light with K38R
- H2L2:H2L1 normalized median ratio (H2L2 part) [5]: 92%
- H2L2:H2L1 normalized median scalar value ln(r1/f1) [5]: 2.47
- H2L2:H2L1 normalized median ratio (H2L2 part) [6]: 77%
- H2L2:H2L1 normalized median scalar value ln(r1/f1) [6]: 1.19
- H1L1:H1L2 normalized median ratio (H1L2 part) [19]: 28%
- H1L1:H1L2 normalized median ratio (H1L2 part) [7]: 26%
- H2L2:H2L1 normalized median ratio (H2L2 part) [8]: 49%
- H2L2:H2L1 normalized median scalar value ln(r1/f1) [8]: -0.03
- H2L2:H2L1 normalized median ratio (H2L2 part) [9]: 48%
- H2L2:H2L1 normalized median scalar value ln(r1/f1) [9]: -0.08
- H2L2:H2L1 normalized median ratio (H2L2 part) [11]: 77%
- H2L2:H2L1 normalized median scalar value ln(r1/f1) [11]: 1.19
- H2L2:H2L1 normalized median ratio (H2L2 part) [12]: 73%
- H2L2:H2L1 normalized median scalar value ln(r1/f1) [12]: 1.02
- H1L1:H1L2 normalized median ratio (H1L2 part) [20]: 23%

B7: CAT-2200 Fab heterodimer H1L1, no pairing substitutions (wild-type H1 and L1), light chain with FLAG tag (Fab, V domains shown, not shown: small tags and cut ends)
VH: not shown
VL: NFMLTQPHSVSESPGKTVTISCTRSSGSLANYYVQWYQQRPGSSPTIVIFANNQRPSGVPDRFSGSIDSSSNSASLTISGLKTEDEADYYCQTYDPYSVVFGGGTKLTVLG
- Change in KD of H1L1 Fab vs wild type [21]: 0

B8: CAT-2200 Fab heterodimer H1L1 of designs 10662-10731 and 10662-10733 (H1 L45F, L1 unmodified) (Fab, name in Kabat numbering, V domains shown, not shown: small tags and cut ends)
VH: EVQLLESGGGLVQPGGSLRLSCAASGFTFSSYAMSWVRQAPGKGFEWVSAISGSGGSTYYADSVKGRFTISRDNSKNTLYLQMNSLRAEDTAVYYCARDLIHGVTRNWGQGTLVTVSS
VL: B7 VL
- Kd [22]: 0.29 nM

B9: Design 2979 bispecific antibody, System C (CR8071 H1/L1 & SGN-CD19a H2/L2) (bispecific antibody)
chain 1: QVQLVQSGAEVKKPGASVRVSCRASGYIFTESGITWVRQAPGQGLEWMGWISGYSGDTKYAQKLQGRVTMTKDTSTTTAYMELRSLRYDDTAVYYCARDVQYSGSYLGAYYFDYWSPGTLVTVSSASTKGPSVFPLAPSSKSTSGGTAALGCLVKDYFPEPVTVSWNSGALTSGVHTFPAVLQSSGLYSLKSVVTVPSSSLGTQTYICNVNHKPSNTKVDKKVEPKSCDKTHTCPPCPAPELLGGPSVFLFPPKPKDTLMISRTPEVTCVVVDVSHEDPEVKFNWYVDGVEVHNAKTKPREEQYNSTYRVVSVLTVLHQDWLNGKEYKCKVSNKALPAPIEKTISKAKGQPREPQVYVYPPSRDELTKNQVSLTCLVKGFYPSDIAVEWESNGQPENNYKTTPPVLDSDGSFALVSKLTVDKSRWQQGNVFSCSVMHEALHNHYTQKSLSLSPG
chain 2: not shown
chain 3: not shown
chain 4: EIVLTQSPATLSLSPGERATLSCSASSSVSYMHWYQQKPGQAPRLLIYDTSKLASGIPARFSGSGSGTDFTLTISSLEPEDFAVYYCFQGSVYPFTFGQGTKLEIKRTVAAPSVFIFPPSDEQLKSGTARVGCLLNNFYPREAKVQWKVDNALQSGNSQESVTEQDSKDSTYSLRSTLTLSKADYEKHKVYACEVTHQGLSSPVTKSFNRGEC
- Kd [23]: 45.1 nM
- Kd [24]: 0.93 nM
- Difference in H2L2 log(KD) from wild type [25]: 0.7
